The experiment deals with Human α-thrombin (human, UniProt P00734 328-622). The experiment can be described thus: fluorescence polarization competition against fluoresceinated γ′408-427 phosphorylated peptide, 2 µM α-thrombin. For orientation: Polarisation of emitted light reports the rotation of a fluorescent probe.

Square brackets hold non-standard residues; d marks the D form. Ends that are not written are not given here. pY = N[C@@H](Cc1ccc(OP(=O)(O)O)cc1)C(=O)O

The source of these data is patent US20040248807A1 (OREGON HEALTH AND SCIENCE UNIVERSITY, published 2004).

As to E[pY]DSL[pY]PEDDL [γ′ amino-terminal deletion peptide 417-427, phosphotyrosine at 418 and 422], the binding result is “no binding”.
